The labels stand for the following.
T1: human TREM2 expressed on cells (human, UniProt Q9NZC2 19-230)
T1 construct: BW5147.G.1.4 cells stably expressing human TREM2 together with Dap12, or endogenous TREM2 of primary human myeloid cells; also called huT2 BW; hTREM2 expressing cell line
T1 sequence: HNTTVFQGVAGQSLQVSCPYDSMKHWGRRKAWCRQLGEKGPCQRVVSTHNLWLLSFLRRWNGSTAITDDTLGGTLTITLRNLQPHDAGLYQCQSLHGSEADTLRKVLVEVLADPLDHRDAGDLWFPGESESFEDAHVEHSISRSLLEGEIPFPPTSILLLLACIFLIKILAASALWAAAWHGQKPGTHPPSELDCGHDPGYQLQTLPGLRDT

T2: human TREM2 Fc fusion (entire TREM2 ECD; only one Fc arm fused to TREM2) (human, UniProt Q9NZC2 19-174)
T2 construct: also called huTREM2-Fc; recombinant hTREM2
T2 sequence: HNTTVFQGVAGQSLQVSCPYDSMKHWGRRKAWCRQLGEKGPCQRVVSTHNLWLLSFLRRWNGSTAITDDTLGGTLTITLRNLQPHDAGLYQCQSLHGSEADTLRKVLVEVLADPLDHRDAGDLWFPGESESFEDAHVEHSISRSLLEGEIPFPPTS

T3: cynomolgus monkey TREM2 Fc fusion (entire TREM2 ECD; only one Fc arm fused to TREM2) (cynomolgus monkey, UniProt Q9NZC2 19-174 (human entry))
T3 construct: also called cyno TREM2-Fc
T3 chain: T2 sequence with A10E, W60R, L89F, F125V

B1: AL2p-57 (antibody, V domains shown)
VH: EVQLVQSGAEVKKPGSSVKVSCKASGYAFSSHWMNWVRQAPGQGLEWMGRIYPGEGDTNYAQKFHGRVTITADESTSTAYMELSSLRSEDTAVYYCARLLRNKPGESYAMDYWGQGTLVTVSS
VL: DVVMTQTPLSLSVTPGQPASISCRTSQSLVHSNQYTYLHWYLQKPGQSPQLLIYKVSNRVSGVPDRFSGSGSGTDFTLKISRVEAEDVGVYYCSQSTRVPYTFGQGTKLEIK
notes: Fab and IgG formats under one id
B2: AL2p-h33 (antibody, human IgG1, V domains shown)
VH: QVQLVQSGAEVKKPGSSVKVSCKASGYAFSSSWMNWVRQAPGQGLEWIGRIYPGDGDTNYAQKFQGRATLTADTSTTTAYMELSSLRSEDTAVYFCARLLRNQPGESYAMDYWGQGTLVTVSS
VL: B1 VL with T25S, Q34G, V60F, V88L, Y92F
notes: humanized, human IgG1; Fab and IgG formats under one id
B3: AL2p-h19 (antibody, human IgG1, V domains shown)
VH: B2 VH with I48M, L70I, T77S, F95Y
VL: B1 VL with V2I, T25S, Q34G, V60F
notes: as for B2
B4: AL2p-h42 (antibody, human IgG1, V domains shown)
VH: B2 VH with S16A, G44R, I48M, A68V, L70I, A72R, T76A, T77S, F95Y
VL: B1 VL with T25S, Q34G, V60F
notes: as for B2
B5: AL2p-h34 (antibody, human IgG1, V domains shown)
VH: B2 VH with L70I, T77S
VL: B1 VL with T25S, Q34G, V60F, V88L, Y92F
notes: as for B2
B6: AL2p-h30 (antibody, human IgG1, V domains shown)
VH: B2 VH with S16A, I48M, A68V, L70M, T77S, F95Y
VL: B1 VL with T25S, Q34G, V60F, V88L, Y92F
notes: as for B2
B7: AL2p-h44 (antibody, human IgG1, V domains shown)
VH: B2 VH with S16A, V18L, G44R, T76A, T77S
VL: B1 VL with T25S, Q34G, V60F
notes: as for B2
B8: AL2p-h23 (antibody, human IgG1, V domains shown)
VH: B2 VH with S16A, V18L, V20I, T77S, F95Y, T117A
VL: B1 VL with T25S, Q34G, V60F, V88L, Y92F
notes: as for B2
B9: AL2p-h35 (antibody, human IgG1, V domains shown)
VH: B2 VH with I48M, L70I, T77S, F95Y
VL: B1 VL with T25S, Q34G, V60F, V88L, Y92F
notes: as for B2
B10: AL2p-h26 (antibody, human IgG1, V domains shown)
VH: B2 VH with S16A, G44R, A68V, L70I, T76A, T77S, F95Y
VL: B1 VL with T25S, Q34G, V60F, V88L, Y92F
notes: as for B2
B11: AL2p-h21 (antibody, human IgG1, V domains shown)
VH: B2 VH with S16A, I48M, A68V, L70M, A72R, T77S, A79V, F95Y
VL: B1 VL with T25S, Q34G, V60F, V88L, Y92F
notes: as for B2
B12: AL2p-h22 (antibody, human IgG1, V domains shown)
VH: B2 VH with S16A, A68V, L70M, T77S, A79V, F95Y
VL: B1 VL with T25S, Q34G, V60F, V88L, Y92F
notes: as for B2
B13: AL2p-h47 (antibody, human IgG1, V domains shown)
VH: QVQLVQSGAEVKKPGASVKVSCKASGYAFSSSWMNWVRQAPGQGLEWMGRIYPGDGDTNYNGEFRVRVTMTRDTSTSTVYMELSSLRSEDTAVYYCARLLRNQPGESYAMDYWGQGTLVTVSS
VL: B1 VL with T25S, Q34G, V60F
notes: as for B2
B14: AL2p-h36 (antibody, human IgG1, V domains shown)
VH: EVQLLESGGGLVQPGGSLRLSCAASGYAFSSSWMNWVRQAPGKGLEWIGRIYPGDGDTNYAQKFQGRATISADTSKNTAYLQMNSLRAEDTAVYYCARLLRNQPGESYAMDYWGQGTLVTVSS
VL: B1 VL with T25S, Q34G, V60F, V88L, Y92F
B15: AL2p-h29 (antibody, human IgG1, V domains shown)
VH: B2 VH with S16A, L70M, T77S, F95Y
VL: B1 VL with T25S, Q34G, V60F, V88L, Y92F
B16: AL2p-h28 (antibody, human IgG1, V domains shown)
VH: B2 VH with S16A, T77S
VL: B1 VL with T25S, Q34G, V60F, V88L, Y92F

Numbering of substitutions follows the chain as printed.

T4 sequence (O43914 other isoform, or with tags, fused parts or gaps limits assumed): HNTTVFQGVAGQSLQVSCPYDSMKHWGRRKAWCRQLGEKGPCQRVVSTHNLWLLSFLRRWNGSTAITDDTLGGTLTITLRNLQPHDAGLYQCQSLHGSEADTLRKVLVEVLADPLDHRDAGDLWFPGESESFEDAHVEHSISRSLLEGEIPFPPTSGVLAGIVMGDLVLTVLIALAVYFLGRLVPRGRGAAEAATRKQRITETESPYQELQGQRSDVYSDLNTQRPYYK

One experiment deals with T1, human TREM2 expressed on cells. The experiment can be described thus: FACS, human DCs. The source says: To examine cell binding of affinity matured anti-TREM2 antibodies, both primary human monocyte derived dendritic cells and recombinant, human TREM2 expressing cells were utilized. For the latter, BW5147.G.1.4 (ATCC® TIB48™) and HEK293T cells stably expressing human TREM2 together with Dap12 using viral infection were established. For primary human monocyte derived dendritic cells, human monocytes were isolated from whole blood using RosetteSep Human monocyte enrichment cocktail (Stemcell technologies) and Ficoll centrifugation per manufacturer protocols. After lysing red blood cells with ACK lysing buffer, monocytes were resuspended in complete media (RPMI, 10% FBS, Pen/Strep, L-glutamine, HEPES, non-essential amino acid, Sodium pyruvate) with 100 ng/ml human GM-CSF (hu-GMCSF) and, human IL-4 (hu-IL-4) to differentiate dendritic cells for 6 days.
Cells were harvested by trypsinization (Hek293T) or scraping (BW and dendritic cells), washed in PBS, counted and plated on 96-well U bottom plates at […] cells/well. The plates were spun at 1,400 rpm for 3 minutes and primary TREM2 or control antibodies were added in FACS buffer (PBS+2% FBS) and incubated on ice for one hour. Cells were subsequently centrifuged as before and washed thrice with FACS buffer. Cells were then incubated with anti-human PE conjugated secondary antibody (BD Biosciences) in FACS buffer for 30 minutes on ice. Cells were again washed thrice with FACS buffer and analyzed on a BD FACS Canto or an Intellicyt Flow Cytometer. Binding was measured as mean fluorescence intensity in the APC channel.
A general note: In flow cytometry, cells or beads pass a laser one at a time.
Molecule B1 showed an MFI of 152 MFI.

The target of a further experiment is T2, human TREM2 Fc fusion (entire TREM2 …). The experiment can be described thus: BLI, Fab, monovalent. The method, then: Briefly, IgG's were loaded on-line onto AHQ sensors. Sensors were equilibrated off-line in assay buffer for 30 minutes and then monitored on-line for 60 seconds for baseline establishment. For avid binding measurement, sensors with loaded IgGs were exposed to 100 nM antigen (human TREM2 Fc fusion using the entire TREM2 ECD; only one Fc arm was fused to TREM2) for 3 minutes, afterwards they were transferred to assay buffer for 3 minutes for off-rate measurement. Monovalent binding measurements were obtained by loading human TREM2 Fe fusion antigens to AHQ sensor and followed by exposure to 100 nM TREM2 antibody Fab. Kinetics data were fit using a 1:1 binding model in the data analysis software provided by ForteBio. Assay was run at room temperature (25° C.).
In general terms: BLI is a label-free optical method that tracks binding on a fibre tip over time.
Usually Kd stands for a measure of binding affinity in units of concentration. Take B2: the Kd was found to be 225 nM.
In turn, B3 displayed a dissociation constant Kd of 193 nM.
B4 came in with a Kd of 141 nM.
B5 displayed a Kd of 142 nM.
On the same count and under the same terms, the value for B6 was 181 nM; that for B7 was 180 nM.
Still for that read-out and setting: the value for B8 was 334 nM; that for B9 was 127 nM.
Molecule B10 displayed a Kd of 95.3 nM.
As for B11, binding was characterised by a dissociation constant (Kd) of 137 nM.
On the same count and under the same terms, the value for B12 was 325 nM; that for B13 was 161 nM.

Another experiment has the same target. The experiment can be described thus: BLI, Fab, monovalent. The source holds these as a separate data set.
B1 came in with a Kd of 17.8 nM.

The target of a further experiment is T3, cynomolgus monkey TREM2 Fc fusion …. The experiment can be described thus: BLI, Fab, monovalent.
Molecule B1 gave a Kd of 17.6 nM.

Another experiment has as its target T1, human TREM2 expressed on cells. Kind of experiment: FACS, hTREM2 BW cells. The method, then: To examine cell binding of anti-TREM2 antibodies, recombinant, human TREM2-expressing BW5147.G.1.4 cells (ATCC® TIB48™) were established by stably expressing either mouse TREM2 or human TREM2 together with Dap12 using viral infection. Cells were harvested by scraping, washed in PBS, counted and plated on 96-well U bottom plates at 1)(10⁵ cells/well. The plates were spun at 1,400 rpm for 3 minutes and primary anti-TREM2 or control antibodies were added in FACS buffer (PBS H2% FBS) and incubated on ice for one hour. Cells were subsequently centrifuged as before and washed thrice with FACS buffer. Cells were then incubated with anti-human PE conjugated secondary antibody (BD Biosciences) in FACS buffer for 30 minutes on ice. Cells were again washed thrice with FACS buffer and analyzed on a BD FACS Canto. Binding was measured as mean fluorescence intensity in the APC channel.
Consider B2, for which the “cell binding (FOB)” value turned out to be 74 FOB.
As to B3, the “cell binding (FOB)” value was determined as 87 FOB.
On to B4, for which the “cell binding (FOB)” value worked out at 79 FOB.
In the case of B5, the “cell binding (FOB)” value was 84 FOB.
As to B6, the “cell binding (FOB)” value turned out to be 88 FOB.
Regarding B7, the “cell binding (FOB)” value came to 80 FOB.
Take B8: the “cell binding (FOB)” value was 76 FOB.
Take B9: the “cell binding (FOB)” value worked out at 69 FOB.
On to B10, for which the “cell binding (FOB)” value was found to be 78 FOB.
Take B11: the “cell binding (FOB)” value came out at 76 FOB.
Turning to B12, the “cell binding (FOB)” value came out at 61 FOB.
The same measure, in the same setting: the value for B13 was 93 FOB.

Another experiment shares this target. Kind of experiment: FACS, hTREM2 BW cells. The source holds these as a separate data set. The essentials:
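Cells were BW5147.G.1.4 stably expressing human TREM2 with Dap12, or human monocyte-derived dendritic cells differentiated 6 days with GM-CSF and IL-4. Antibodies bound 1 h on ice in PBS+2% FBS, then PE anti-human secondary 30 min on ice; flow cytometry read-out as mean fluorescence intensity.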
The molecule B1 returned a Kd of 1.83 nM.

Another experiment addresses T4, human TREM2/DAP12 fusion protein (human, UniProt O43914 41-113, limits assumed). Kind of experiment: cell-based or functional assay.
In the case of B14, the “Soluble luciferase activation at 10 µg/ml Fold over control” value was 4.13 fold over control.
Consider B15, for which the “Soluble luciferase activation at 10 µg/ml Fold over control” value was 5.8 fold over control.
On to B2, for which the “Soluble luciferase activation at 10 µg/ml Fold over control” value amounted to 6.21 fold over control.
For the molecule B16, the “Soluble luciferase activation at 10 µg/ml Fold over control” value turned out to be 5.59 fold over control.
On the same count and under the same terms, the value for B3 was 4.97 fold over control; that for B4 was 9.29 fold over control.
In the case of B5, the “Soluble luciferase activation at 10 µg/ml Fold over control” value is 6.92 fold over control.
On to B6, for which the “Soluble luciferase activation at 10 µg/ml Fold over control” value turned out to be 6.01 fold over control.
Consider B7, for which the “Soluble luciferase activation at 10 µg/ml Fold over control” value amounted to 7.29 fold over control.
Take B8: the “Soluble luciferase activation at 10 µg/ml Fold over control” value was 5.38 fold over control.
In the case of B9, the “Soluble luciferase activation at 10 µg/ml Fold over control” value came to 6.81 fold over control.
Regarding B10, the “Soluble luciferase activation at 10 µg/ml Fold over control” value was 7.25 fold over control.
Still for that read-out and setting: under B11 stands 6.28 fold over control.
Same read-out and setting: the value for B12 was 5 fold over control; that for B13 was 9.28 fold over control.

Another experiment addresses T1, human TREM2 expressed on cells. Kind of experiment: cell-based or functional assay.
Regarding B1, the “DC viability (AUC)” value worked out at 506000 AUC and the “Mac viability (AUC)” value was -3560 AUC.

A further experiment addresses T4, human TREM2/DAP12 fusion protein. Kind of experiment: cell-based or functional assay. The source holds these as a separate data set.
For the molecule B1, the “BW Luc assay plate bound 7.3 nM IgG, FOC” value amounted to 1.41 FOC and the “BW Luc assay soluble 7.3 nM IgG, FOC” value came to 2.03 FOC.

Values taken from US20200317776A1 (published 2020).
